Source: patent US20210332133A1 (TENEOTWO, published 2021)
Positions count from the first letter of the chain named.

T1: human CD19 on CD19-positive cells (Daudi, Raji, Ramos; CD19+ tumor cell line) (human, UniProt P15391 20-556)
T1 construct: whole, on cells
T1 sequence (looked up): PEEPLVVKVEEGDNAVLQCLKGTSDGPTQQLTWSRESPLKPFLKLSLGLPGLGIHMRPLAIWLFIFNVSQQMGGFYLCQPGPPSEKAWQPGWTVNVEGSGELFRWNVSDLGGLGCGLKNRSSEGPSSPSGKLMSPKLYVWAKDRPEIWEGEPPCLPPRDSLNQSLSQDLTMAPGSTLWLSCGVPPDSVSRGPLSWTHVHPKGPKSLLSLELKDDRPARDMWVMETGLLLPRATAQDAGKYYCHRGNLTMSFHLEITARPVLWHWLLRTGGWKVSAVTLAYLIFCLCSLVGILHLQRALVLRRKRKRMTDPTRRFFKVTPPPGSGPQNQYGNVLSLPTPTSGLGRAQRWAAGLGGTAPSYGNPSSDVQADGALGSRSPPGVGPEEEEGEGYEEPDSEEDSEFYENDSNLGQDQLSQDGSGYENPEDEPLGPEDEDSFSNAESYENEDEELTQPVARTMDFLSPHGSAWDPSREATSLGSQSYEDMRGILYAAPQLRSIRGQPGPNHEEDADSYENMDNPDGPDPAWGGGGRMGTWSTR

T2: human CD19 (human, UniProt P15391 20-291)
T2 construct: also called B-Lymphocyte Surface Antigen B4; recombinant CD19 extracellular domain
T2 sequence (looked up): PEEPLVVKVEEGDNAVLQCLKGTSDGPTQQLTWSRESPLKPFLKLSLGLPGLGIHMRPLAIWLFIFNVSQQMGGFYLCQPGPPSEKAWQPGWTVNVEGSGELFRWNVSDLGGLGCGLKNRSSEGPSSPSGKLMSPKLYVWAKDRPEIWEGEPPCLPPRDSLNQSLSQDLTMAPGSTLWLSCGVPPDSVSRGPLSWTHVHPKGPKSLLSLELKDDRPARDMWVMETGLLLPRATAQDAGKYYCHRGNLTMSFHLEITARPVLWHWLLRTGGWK

B1: SEQ ID NO 21 (antibody, V domains shown)
VH: EVQLVESGGGLVQPGGSLRLSCVASGFTFSSYWMSWVRQAPGKGLEWVANIKQDGSEKEYVDSVKGRFTISRDNAKNSLYLQMNSLRAEDTAVYYCASGVYSFDYRGQGTLVTVSS
notes: Heavy chain-only antibody (UniAb, human IgG, no light chain, no CH1)
B2: SEQ ID NO 18 (antibody, V domains shown)
VH: B1 VH with Q13K, V23E, N50H, E59Y
notes: as for B1
B3: SEQ ID NO 16 (antibody, V domains shown)
VH: B1 VH with L11M, V23A, N50T, K52N, E59D, N77K, Y80L
notes: as for B1
B4: SEQ ID NO 20 (antibody, V domains shown)
VH: B1 VH with R19T, S31D, W33Y, V37I, E59F, A75P, N84D, A88V
notes: as for B1
B5: SEQ ID NO 15 (antibody, V domains shown)
VH: B1 VH with V12A, V23A, Y32F, N50T, I51M, K52N, E59D, R87T
notes: as for B1
B6: SEQ ID NO 19 (antibody, V domains shown)
VH: B1 VH with S31D, K52N, Q53K, D54A, K58E, E59F, N84D
notes: as for B1
B7: SEQ ID NO 17 (antibody, V domains shown)
VH: B1 VH with V23A, T28S, S31D, Y32F, N50T, K52S, D54A, E59D, N77K
notes: as for B1
B8: SEQ ID NO 14 (antibody, V domains shown)
VH: B1 VH with V23A, S31N, L45Q, N50T, K52N, E57D, E59D, N77K
notes: as for B1

These binders were tested against T1, human CD19 on CD19-positive cells … (assay: cell binding, flow cytometry).
Procedure: Binding to CD19 positive cells was assessed by flow cytometry (Guava easyCyte 8HT, EMD Millipore) using the Daudi cell line (ATCC). Briefly, 100,000 target cells were stained with a dilution series of purified UniAbs™ for 30 minutes at 4° C. Following incubation, the cells were washed twice with flow cytometry buffer (1X PBS, 1% BSA, 0.1% NaN₃) and stained with goat F(ab′)2 anti-human IgG conjugated to R-phycoerythrin (PE) (Southern Biotech, cat. #2042-09) to detect cell-bound antibodies. After a 20-minute incubation at 4° C., the cells were washed twice with flow cytometry buffer and then mean fluorescence intensity (MFI) was measured by flow cytometry. EC50 values were calculated using GraphPad Prism 7. Binding to cynomolgus CD19 positive cells was determined using the same protocol with the following modifications: the target cells were from CHO cells stably transfected to express the extracellular domain of cynomolgus CD19 and each antibody was tested at a single concentration (˜1.7 μg/mL) so EC50 values were not calculated.

binding result | Binder
binds | B1
binds | B2
binds | B3
binds | B4
binds | B5
binds | B6
binds | B7
binds | B8

These binders were tested against T2, human CD19 (assay: ELISA on recombinant CD19 extracellular domain and/or cell-binding assay).

binding result | Binder
binds | B1
binds | B2
binds | B3
binds | B4
binds | B5
binds | B6
binds | B7
binds | B8
